Source: article PMC10928986, “ARTC1-mediated VAPB ADP-ribosylation regulates calcium homeostasis” (Journal of Molecular Cell Biology, 2023)

Experiments:
[1] = target: T1, hARTC1 in the presence of hARTC3 (hARTC1–hARTC3 heterodimer) (Homo sapiens, UniProt P52961); experiment: etheno-NAD+ fluorescence kinetics; assay type: biochemical; settings: 20 mM Tris-HCl pH 8.0, 37°C; hARTC1 with hARTC3 added
T1 construct: gene ART1; GST-hARTC1 (N23-C295) with His-hARTC3 (N27-C362), both from E. coli; heterodimer by size exclusion; with Ecto-ADP-ribosyltransferase 3
T1 sequence (P52961 23-295): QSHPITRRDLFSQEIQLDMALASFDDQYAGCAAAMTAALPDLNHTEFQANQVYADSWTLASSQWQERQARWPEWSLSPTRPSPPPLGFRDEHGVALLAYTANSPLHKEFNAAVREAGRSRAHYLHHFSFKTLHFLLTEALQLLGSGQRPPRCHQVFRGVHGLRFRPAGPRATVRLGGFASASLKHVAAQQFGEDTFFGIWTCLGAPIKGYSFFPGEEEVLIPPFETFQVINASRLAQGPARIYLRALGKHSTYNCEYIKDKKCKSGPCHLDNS
T1 sequence (Q13508 27-362 partner): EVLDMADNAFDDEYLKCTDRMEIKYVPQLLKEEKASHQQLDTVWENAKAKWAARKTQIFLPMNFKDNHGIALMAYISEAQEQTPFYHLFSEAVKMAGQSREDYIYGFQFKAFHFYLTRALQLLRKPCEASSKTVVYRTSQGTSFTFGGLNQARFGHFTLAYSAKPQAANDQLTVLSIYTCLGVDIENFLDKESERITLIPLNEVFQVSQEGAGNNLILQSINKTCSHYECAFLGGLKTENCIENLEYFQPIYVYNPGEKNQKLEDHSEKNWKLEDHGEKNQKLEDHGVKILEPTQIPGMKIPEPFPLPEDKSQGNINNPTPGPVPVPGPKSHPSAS

[2] = substrate: NC(=O)c1ccc[n+]([C@@H]2O[C@H](COP(=O)(O)OP(=O)(O)OC[C@H]3O[C@@H](n4cnc5c4ncn4ccnc54)[C@H](O)[C@@H]3O)[C@@H](O)[C@H]2O)c1; experiment: etheno-NAD+ NAD+ hydrolase fluorescence assay, Lineweaver-Burk; assay type: biochemical, Homo sapiens; settings: 20 mM Tris-HCl pH 8.0, 37°C, 60 min, etheno-NAD+ 0-10 μM, enzyme 10 μg/ml
[3] = target: T2, His-hARTC3 (N27–C362) (human, UniProt Q13508 27-362); experiment: pull-down; GST-hARTC1 (N23–C295) and His-hARTC3 (N27–C362) purified from E. coli, incubated with Glutathione Sepharose 4B and Ni-chelating Sepharose, 4°C, 2 h; washes in NETN 100; blots with anti-His and anti-GST; settings: both partners purified
T2 construct: human ARTC3 residues 27-362, printed as N27–C362 (N and C read as the N- and C-terminal limits), in pET-15b; also called His-ARTC3 (N27–C362); source: E. coli BL21 (Codon Plus), purified (Ni-chelating Sepharose); not shown: His tag, N-terminal, kept
T2 sequence (looked up): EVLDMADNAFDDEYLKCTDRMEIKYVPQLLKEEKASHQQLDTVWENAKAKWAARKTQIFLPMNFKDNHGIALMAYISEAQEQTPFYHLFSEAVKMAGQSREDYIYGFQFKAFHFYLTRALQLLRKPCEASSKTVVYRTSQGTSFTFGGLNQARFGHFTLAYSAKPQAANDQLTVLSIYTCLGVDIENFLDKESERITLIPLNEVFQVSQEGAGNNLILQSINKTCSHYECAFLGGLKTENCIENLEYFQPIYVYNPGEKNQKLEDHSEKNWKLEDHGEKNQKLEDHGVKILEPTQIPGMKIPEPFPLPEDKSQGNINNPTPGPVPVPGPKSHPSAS

NC(=O)c1ccc[n+]([C@@H]2O[C@H](COP(=O)(O)OP(=O)(O)OC[C@H]3O[C@@H](n4cnc5c4ncn4ccnc54)[C@H](O)[C@@H]3O)[C@@H](O)[C@H]2O)c1 [etheno-NAD^+]
etheno-NAD+ fluorescence kinetics [1]: Enzymatic kinetics for etheno-NAD^+ of hARTC1 in the presence (green) or absence (red)

B1: hARTC5 (GST-ARTC5 (N23–C291)) (Homo sapiens) (protein)
chain: VPILPLGLAPDTFDDTYVGCAEEMEEKAAPLLKEEMAHHALLRESWEAAQETWEDKRRGLTLPPGFKAQNGIAIMVYTNSSNTLYWELNQAVRTGGGSRELYMRHFPFKALHFYLIRALQLLRGSGGCSRGPGEVVFRGVGSLRFEPKRLGDSVRLGQFASSSLDKAVAHRFGNATLFSLTTCFGAPIQAFSVFPKEREVLIPPHEVFLVTRFSQDGAQSLVTLWSYNQTCSHFNCAYLGGEKRRGCVSAPGALGTGDLHMTKRHLQQP
Km [2]: 56.78 ± 11.90 µM

B2: GST-hARTC1 (N23–C295) (domain or fragment, human, UniProt P52961 23-295, looked up)
chain: QSHPITRRDLFSQEIQLDMALASFDDQYAGCAAAMTAALPDLNHTEFQANQVYADSWTLASSQWQERQARWPEWSLSPTRPSPPPLGFRDEHGVALLAYTANSPLHKEFNAAVREAGRSRAHYLHHFSFKTLHFLLTEALQLLGSGQRPPRCHQVFRGVHGLRFRPAGPRATVRLGGFASASLKHVAAQQFGEDTFFGIWTCLGAPIKGYSFFPGEEEVLIPPFETFQVINASRLAQGPARIYLRALGKHSTYNCEYIKDKKCKSGPCHLDNS
notes: human ARTC1 residues 23-295, printed as N23–C295 (N and C read as the N- and C-terminal limits), in pGEX-4T-1; also called GST-ARTC1 (N23–C295); source: E. coli BL21 (Codon Plus), purified (Glutathione Sepharose 4B); not shown: GST, N-terminal, kept
Km [2]: 11.59 ± 1.57 µM | binding result [3]: binds
